This data set deals with the molecule itself. In words: SEC. Background: SEC sorts molecules by how far they enter the pores of the column.

B1: Arabidopsis thaliana Golgi anti-apoptotic protein 3 (AtGAAP3) (natural protein, UniProt Q9ZQX7-1 1-248, looked up)
chain: MYQWNLPYRKDDVETGVSSRRPLLYPAMHENPELRWGFIRKVYSIIAFQLLATVAVAATVVTVRPIALFFATTGLGLALYIVIIITPLIVLCPLYYYHQKHPVNYLLLGIFTLALAFVVGLTCAFTNGKVILESVILTSVVVLSLTLYTFWAARKGYDFNFLGPFLFGALTVLIFFALIQILFPLGRVSVMIYGCLVSIIFCGYIVYDTDNLIKRHTYDEYIWAAVSLYLDIINLFLYLLTVLRALQR
For the protein B1, the binding result is given as “binds”.

The values are drawn from publication doi:10.1101/859678 (bioRxiv, 2019).
